According to patent US7566535B2, “Enhanced oligonucleotide-mediated nucleic acid sequence alteration” (University of Delaware, priority 2002, dated 2009):
In the oligonucleotide strings, read from the 5' end, every base follows the letter of its sugar. An asterisk marks phosphorothioate; unmarked linkages are phosphodiester. Other units and linkages are bracketed, terminal groups are in braces. A string of capitals states the bases alone. d = 2'-deoxy (DNA)

How the values were obtained:
[1] = test system: pAURHYG(x)eGFP; assay: Strand bias of hygromycin gene correction in rad1 and rad10 yeast mutants
[2] = test system: pAURHYG(ins)eGFP; assay: In vivo correction of episomal pAURHYG(ins)eGFP in yeast; conditions: for Average colony count on hygromycin plates / hygromycin-resistant colonies per aureobasidin-resistant colony: wild-type LSY678; for Colonies on Hygromycin / Correction Efficiency / Fold: 5 μg oligo
[3] = test system: pAURHYG(x)eGFP; assay: Hygromycin gene correction in yeast LSY678 with or without trichostatin A; conditions: 5 μg oligo
[4] = test system: pAURHYG(rep)eGFP; assay: Correction of pAURHYG(rep)eGFP in yeast LSY678 with or without hydroxyurea; conditions: 5 μg oligo (1.62 μg Hyg10)
[5] = test system: CYC1 gene; assay: CYC1 gene repair in diploid yeast strains, growth on glycerol (YPG); conditions: YMH55; 5 μg oligo
[6] = test system: pAURHYG(rep)eGFP; assay: In vivo correction of episomal pAURHYG(rep)eGFP in yeast, hygromycin-resistant colonies; conditions: for Average colony count on hygromycin plates / hygromycin-resistant colonies per aureobasidin-resistant colony: wild-type LSY678; for Colonies on Hygromycin / Correction Efficiency / Fold: 5 μg oligo
[7] = Cells both pre-treated and treated during recovery with 50 μg/mL trichostatin A

B1: HygE3T/74: 74-base single-stranded DNA oligonucleotide, three phosphorothioate linkages at each end, SEQ ID NO: 8 (nucleic acid)
DNA: dC*dT*dC*dGdTdGdCdTdTdTdCdAdGdCdTdTdCdGdAdTdGdTdAdGdGdAdGdGdGdCdGdTdGdGdAdTdAdCdGdTdCdCdTdGdCdGdGdGdTdAdAdAdTdAdGdCdTdGdCdGdCdCdGdAdTdGdGdTdTdTdC*dT*dA*dC
B1 was tested, and the “Colonies on Hygromycin” value ([1]; rad1 mutant) was 3, the “Colonies on Hygromycin” value ([1]; rad10 mutant) was 2 and the “Average colony count on hygromycin plates” value (“Average colony count” below) ([2]; 1.0 μg oligo) was 5. For the same molecule, the “hygromycin-resistant colonies per aureobasidin-resistant colony” value ([2]; 1.0 μg oligo) was 0.03, the “Average colony count” value ([2]; 2.5 μg oligo) was 47 and the “hygromycin-resistant colonies per aureobasidin-resistant colony” value ([2]; 2.5 μg oligo) was 0.29. The “Average colony count” value ([2]; 5.0 μg oligo) was 199, the “hygromycin-resistant colonies per aureobasidin-resistant colony” value ([2]; 5.0 μg oligo) was 1.24 and the “Average colony count” value ([2]; 7.5 μg oligo) was 54. The “hygromycin-resistant colonies per aureobasidin-resistant colony” value ([2]; 7.5 μg oligo) was 0.34, the “Average colony count” value ([2]; 10.0 μg oligo) was 17 and the “hygromycin-resistant colonies per aureobasidin-resistant colony” value ([2]; 10.0 μg oligo) was 1.10. For the same molecule, the “Colonies on Hygromycin” value ([2]; Exo1 mutant) was 2, the “Correction Efficiency” value ([2]; Exo1 mutant) was 0.01 and the Fold ([2]; Exo1 mutant) was 0x. The “Colonies on Hygromycin” value ([2]; mre11 mutant) was 3, the “Correction Efficiency” value ([2]; mre11 mutant) was 0.09 and the Fold ([2]; mre11 mutant) was 0.03x. The “Colonies on Hygromycin” value ([2]; msh2 mutant) was 0, the “Correction Efficiency” value ([2]; msh2 mutant) was 0 and the Fold ([2]; msh2 mutant) was 0x. The “Colonies on Hygromycin” value ([2]; msh3 mutant) was 1, the “Correction Efficiency” value ([2]; msh3 mutant) was 0.05 and the Fold ([2]; msh3 mutant) was 0.02x. The “Colonies on Hygromycin” value ([2]; msh6 mutant) was 0, the “Correction Efficiency” value ([2]; msh6 mutant) was 0 and the Fold ([2]; msh6 mutant) was 0x. The “Colonies on Hygromycin” value ([2]; pms1 mutant) was 111, the “Correction Efficiency” value ([2]; pms1 mutant) was 18.5 and the Fold ([2]; pms1 mutant) was 5.35x. The “Colonies on Hygromycin” value ([2]; rad1 mutant) was 52, the “Correction Efficiency” value ([2]; rad1 mutant) was 0.59 and the Fold ([2]; rad1 mutant) was 0.17x. For the same molecule, the “Colonies on Hygromycin” value ([2]; rad2 mutant) was 113, the “Correction Efficiency” value ([2]; rad2 mutant) was 1.79 and the Fold ([2]; rad2 mutant) was 0.52x. The “Colonies on Hygromycin” value ([2]; rad10 mutant) was 14, the “Correction Efficiency” value ([2]; rad10 mutant) was 0.14 and the Fold ([2]; rad10 mutant) was 0.04x. The “Colonies on Hygromycin” value ([2]; rad23 mutant) was 1, the “Correction Efficiency” value ([2]; rad23 mutant) was 0.01 and the Fold ([2]; rad23 mutant) was 0x. The “Colonies on Hygromycin” value ([2]; rad50 mutant) was 1, the “Correction Efficiency” value ([2]; rad50 mutant) was 0.06 and the Fold ([2]; rad50 mutant) was 0.02x. The “Colonies on Hygromycin” value ([2]; rad51/52 mutant) was 3, the “Correction Efficiency” value ([2]; rad51/52 mutant) was 0.3 and the Fold ([2]; rad51/52 mutant) was 0.01x. For the same molecule, the “Colonies on Hygromycin” value ([2]; rad51 mutant) was 19, the “Correction Efficiency” value ([2]; rad51 mutant) was 0.59 and the Fold ([2]; rad51 mutant) was 0.17x. For the same molecule, the “Colonies on Hygromycin” value ([2]; rad52 mutant) was 31, the “Correction Efficiency” value ([2]; rad52 mutant) was 0.86 and the Fold ([2]; rad52 mutant) was 0.24x. For the same molecule, the “Colonies on Hygromycin” value ([2]; rad54 mutant) was 0, the “Correction Efficiency” value ([2]; rad54 mutant) was 0 and the Fold ([2]; rad54 mutant) was 0x. The “Colonies on Hygromycin” value ([2]; rad55 mutant) was 0, the “Correction Efficiency” value ([2]; rad55 mutant) was 0 and the Fold ([2]; rad55 mutant) was 0X. For the same molecule, the “Colonies on Hygromycin” value ([2]; rad57 mutant) was 34, the “Correction Efficiency” value ([2]; rad57 mutant) was 0.33 and the Fold ([2]; rad57 mutant) was 0.10x. The “Colonies on Hygromycin” value ([2]; rad59 mutant) was 116, the “Correction Efficiency” value ([2]; rad59 mutant) was 2.47 and the Fold ([2]; rad59 mutant) was 0.71x. The “Colonies on Hygromycin” value ([2]; wild type) was 256, the “Correction Efficiency” value ([2]; wild type) was 3.46 and the Fold ([2]; wild type) was 1x. The “Colonies on Hygromycin” value ([2]; xrs2 mutant) was 6, the “Correction Efficiency” value ([2]; xrs2 mutant) was 0.04 and the Fold ([2]; xrs2 mutant) was 0.01x. The Correction Efficiency [3, 7] was 2.05 1/10^5, the “Hyg^r” value [3, 7] was 230 and the Correction Efficiency ([3]; Cells treated during recovery with 50 μg/mL trichostatin A) was 0.34 1/10^5. The Correction Efficiency ([3]; No treatment) was 0.16 1/10^5, the Correction Efficiency ([4]; 20 mM hydroxyurea 4 h pre-treatment, growth time 10 min) was 3.1 hygromycin resistant colonies and the Correction Efficiency ([4]; 20 mM hydroxyurea 4 h pre-treatment, growth time 20 min) was 4.9 hygromycin resistant colonies. The Correction Efficiency ([4]; 20 mM hydroxyurea 4 h pre-treatment, growth time 40 min) was 9.5 hygromycin resistant colonies, the Correction Efficiency ([4]; 20 mM hydroxyurea 4 h pre-treatment, growth time 60 min) was 7.8 hygromycin resistant colonies and the Correction Efficiency ([4]; 20 mM hydroxyurea 4 h pre-treatment, growth time 90 min) was 22.4 hygromycin resistant colonies. The Correction Efficiency ([4]; no hydroxyurea, growth time 10 min) was 0.15 hygromycin resistant colonies, the Correction Efficiency ([4]; no hydroxyurea, growth time 20 min) was 2.9 hygromycin resistant colonies and the Correction Efficiency ([4]; no hydroxyurea, growth time 40 min) was 3.4 hygromycin resistant colonies. The Correction Efficiency ([4]; no hydroxyurea, growth time 60 min) was 2.32 hygromycin resistant colonies, the Correction Efficiency ([4]; no hydroxyurea, growth time 90 min) was 0.56 hygromycin resistant colonies and the C.E. [5] was 0 ×10^−4. For the same molecule, the “No. of YPG Plate Colonies” value [5] was 0, the “Average colony count” value ([6]; 1.0 μg oligo) was 5 and the “hygromycin-resistant colonies per aureobasidin-resistant colony” value ([6]; 1.0 μg oligo) was 0.03. For the same molecule, the “Average colony count” value ([6]; 2.5 μg oligo) was 99, the “hygromycin-resistant colonies per aureobasidin-resistant colony” value ([6]; 2.5 μg oligo) was 0.61 and the “Average colony count” value ([6]; 5.0 μg oligo) was 204. The “hygromycin-resistant colonies per aureobasidin-resistant colony” value ([6]; 5.0 μg oligo) was 1.26, the “Average colony count” value ([6]; 7.5 μg oligo) was 69 and the “hygromycin-resistant colonies per aureobasidin-resistant colony” value ([6]; 7.5 μg oligo) was 0.42. For the same molecule, the “Average colony count” value ([6]; 10.0 μg oligo) was 19, the “hygromycin-resistant colonies per aureobasidin-resistant colony” value ([6]; 10.0 μg oligo) was 0.12 and the “Colonies on Hygromycin” value ([6]; Msh2 mutant) was 0. For the same molecule, the “Correction Efficiency” value ([6]; Msh2 mutant) was 0, the Fold ([6]; Msh2 mutant) was 0x and the “Colonies on Hygromycin” value ([6]; Msh3 mutant) was 0. For the same molecule, the “Correction Efficiency” value ([6]; Msh3 mutant) was 0, the Fold ([6]; Msh3 mutant) was 0x and the “Colonies on Hygromycin” value ([6]; Msh6 mutant) was 1,270. The “Correction Efficiency” value ([6]; Msh6 mutant) was 2.35, the Fold ([6]; Msh6 mutant) was 0.55x and the “Colonies on Hygromycin” value ([6]; Pms1 mutant) was 2,280. The “Correction Efficiency” value ([6]; Pms1 mutant) was 114, the Fold ([6]; Pms1 mutant) was 26.76x and the “Colonies on Hygromycin” value ([6]; Rad1 mutant) was 1,380. For the same molecule, the “Correction Efficiency” value ([6]; Rad1 mutant) was 8.52, the Fold ([6]; Rad1 mutant) was 2.00x and the “Colonies on Hygromycin” value ([6]; Rad2 mutant) was 919. The “Correction Efficiency” value ([6]; Rad2 mutant) was 3.78, the Fold ([6]; Rad2 mutant) was 0.89x and the “Colonies on Hygromycin” value ([6]; exo1 mutant) was 486. The “Correction Efficiency” value ([6]; exo1 mutant) was 3.92, the Fold ([6]; exo1 mutant) was 0.92x and the “Colonies on Hygromycin” value ([6]; mre11 mutant) was 12. For the same molecule, the “Correction Efficiency” value ([6]; mre11 mutant) was 0.63, the Fold ([6]; mre11 mutant) was 0.15x and the “Colonies on Hygromycin” value ([6]; rad10 mutant) was 54. For the same molecule, the “Correction Efficiency” value ([6]; rad10 mutant) was 0.15, the Fold ([6]; rad10 mutant) was 0.04x and the “Colonies on Hygromycin” value ([6]; rad23 mutant) was 66. The “Correction Efficiency” value ([6]; rad23 mutant) was 0.44, the Fold ([6]; rad23 mutant) was 0.10x and the “Colonies on Hygromycin” value ([6]; rad50 mutant) was 336. The “Correction Efficiency” value ([6]; rad50 mutant) was 2.09, the Fold ([6]; rad50 mutant) was 0.49x and the “Colonies on Hygromycin” value ([6]; rad51/52 mutant) was 212. The “Correction Efficiency” value ([6]; rad51/52 mutant) was 5.45, the Fold ([6]; rad51/52 mutant) was 1.28x and the “Colonies on Hygromycin” value ([6]; rad51 mutant) was 104. For the same molecule, the “Correction Efficiency” value ([6]; rad51 mutant) was 0.62, the Fold ([6]; rad51 mutant) was 0.14x and the “Colonies on Hygromycin” value ([6]; rad52 mutant) was 266. For the same molecule, the “Correction Efficiency” value ([6]; rad52 mutant) was 3.29, the Fold ([6]; rad52 mutant) was 0.77x and the “Colonies on Hygromycin” value ([6]; rad54 mutant) was 2. The “Correction Efficiency” value ([6]; rad54 mutant) was 0.02, the Fold ([6]; rad54 mutant) was 0x and the “Colonies on Hygromycin” value ([6]; rad55 mutant) was 0. For the same molecule, the “Correction Efficiency” value ([6]; rad55 mutant) was 0, the Fold ([6]; rad55 mutant) was 0x and the “Colonies on Hygromycin” value ([6]; rad57 mutant) was 984. The “Correction Efficiency” value ([6]; rad57 mutant) was 17.26, the Fold ([6]; rad57 mutant) was 4.05x and the “Colonies on Hygromycin” value ([6]; rad59 mutant) was 1,198. The “Correction Efficiency” value ([6]; rad59 mutant) was 3.06, the Fold ([6]; rad59 mutant) was 0.71x and the “Colonies on Hygromycin” value ([6]; wild type) was 1,218. For the same molecule, the “Correction Efficiency” value ([6]; wild type) was 4.26, the Fold ([6]; wild type) was 1x and the “Colonies on Hygromycin” value ([6]; xrs2 mutant) was 29. The “Correction Efficiency” value ([6]; xrs2 mutant) was 0.66 and the Fold ([6]; xrs2 mutant) was 0.15x.
